Test results taken from patent publication US20250059285A1 (ARGENX, published 2025).

Assays:
human Gal10-His [1] = target: T1, human Gal10-His (human, UniProt Q05315 2-142, limits assumed); assay: SPR slope against calibrators on captured Gal10-His; T0 sample
T1 construct: also called hGal10-His; human Gal10-His tagged; not shown: His tag
T1 sequence: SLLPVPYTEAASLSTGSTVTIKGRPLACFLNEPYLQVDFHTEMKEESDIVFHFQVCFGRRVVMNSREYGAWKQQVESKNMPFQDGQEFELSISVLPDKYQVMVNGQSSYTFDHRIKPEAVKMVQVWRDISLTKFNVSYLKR
Experimental: The binding properties of the seven selected clones following two weeks of temperature stress was analysed using an optimized capture method on a Biacore 3000 instrument. The binding properties of the stressed samples were determined, compared to the calibration point, and expressed as a percentage of Relative Activity (% RA).
Briefly, a capture method was set-up on a Biacore 3000 instrument. For this purpose, a CM5 chip was coated with a monoclonal anti-His antibody (4000 RU), then a fixed concentration of the human Gal10-His (25 μg/mL) was captured on the anti-His chip before receiving duplicate injections of the calibrators, QC samples and temperature stressed samples of each clone. The slope of each injected sample was then calculated using the BIA evaluation software. Concentrations of the QC samples and temperature stressed samples were back-calculated by interpolating the obtained slopes of these samples to the calibrator curve. Obtained values were within +/−20% of the nominal concentration of the tested samples and are expressed as average relative accuracy (avg % RA) (Table 13).

[2] = target: T2, recombinant human Charcot-Leyden crystals (crystalline galectin-10) (human, UniProt Q05315 2-142, limits assumed); assay: cell-based or functional assay
T2 sequence: T1 sequence

human Gal10-His [3] = target: T1, human Gal10-His; assay: competition ELISA on coated Gal10-His; hFab 20 ug/mL, competitor g7B07-hFab-Biot, streptavidin-HRP
Experimental: An epitope binning analysis of the humanized Fab clones was carried out in comparison with the humanized Fab of g7B07.
For this experiment, a sub-optimal concentration of the biotinylated clone g7B07-humanized Fab was added to the Gal10 coated plate and pre-incubated with the selected clones. The percentage competition with g7B07 was then determined (Table 17). Motavizumab (Mota) in a human Fab backbone was used as a negative control (0% competition). Clone g7B07 was used as the positive control for competition and was therefore set as the 100% competition value. The anti-human specific clone 1D11 (binding to Tyrosine 69 residue) was included in the tested panel as a negative control for competition with 7B07 for Gal10 binding because it was known that clone 1D11 binds to the opposite side of Gal10 (including Tyrosine 69).

[4] = target: T3, cynomolgus Gal10-His (WGS isoform) (cynomolgus); assay: SPR on cynomolgus Gal10-His (WGS isoform)
T3 construct: also called cynomolgus antigen

[5] = target: T3, cynomolgus Gal10-His (WGS isoform); assay: SPR Biacore 3000, hFab on cynomolgus Gal10-His (WGS) captured by anti-His CM5
Procedure, shortened: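 Fab binding measured by SPR on Biacore 3000, with His-tagged human or cynomolgus (WGS isoform) Gal10 captured on an anti-His antibody-coated CM5 chip. Clones applied either at two concentrations (cynomolgus only) or as a serial dilution.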

human Gal10-His [6] = target: T1, human Gal10-His; assay: SPR Biacore 3000, purified hFab on captured Gal10-His
Experimental: The binding properties of the selected Fab clones to human Gal10 were analyzed via a capture method established on a Biacore 3000 instrument. Two concentrations of the selected Fab clones were tested on human Gal10-His immobilized on a CM5 chip coated with a monoclonal anti-His. As controls, the clone g7B07 and g7B07_N53A were injected at the beginning and the end of the run. Briefly, a CM5 chip was coated with a monoclonal anti-His antibody (4000 RU), then a fixed concentration of the human Gal10-His (25 μg/mL) was captured on the anti-His chip before receiving two concentrations of the clones in the human Fab backbone.

human Gal10-His [7] = target: T1, human Gal10-His; assay: SPR Biacore 3000, hFab on captured human Gal10-His; column head prints (M), the text gives nM
human Gal10-His [8] = target: T1, human Gal10-His; assay: SPR, overview table of lead Fab candidates
human Gal10-His [9] = target: T1, human Gal10-His; assay: SPR Biacore 3000, hFab on human Gal10-His captured by anti-His CM5
human Gal10-His [10] = target: T1, human Gal10-His; assay: SPR Biacore 3000, hFab on captured human Gal10-His
Excerpt: For this purpose, two approaches were used. In the first, two concentrations of the selected clones were applied on cynomolgus (WGS isoform) Gal10-His capture on a CM5 chip coated with a monoclonal anti-His antibody. The second approach involved a serial dilution that was applied on human or cynomolgus (WGS isoform) Gal10-His in the same set-up.
Further characterization of the cynomolgus cross-reactivity of these clones highlighted g24F02_N53A and g23H09.

human Gal10-His [11] = target: T1, human Gal10-His; assay: SPR, summary table, human Gal10
human Gal10-His [12] = target: T1, human Gal10-His; assay: SPR Biacore 3000, purified hFab (2 conc.) on Gal10-His captured by anti-His CM5

B1: g23H09 (Fab) (Fab, V domains shown)
VH: EVQLLESGGGLVQPGGSLRLSCAASGFTFRSYDMSWVRQAPGKGLEWVSAIAQFQHWTYYADSVKGRFTISRDNSKNTLYLQMNSLRAEDTAVYYCATTHGIGTLGFGSWGQGTLVTVSS
VL: SYELTQPLSVSVALGQTARITCDGNNIGSKSAQWYQQKPGQAPVLVIYADEYRPEGIPERFSGSNSGNTATLTISRAQAGDEADYYCQVWDGSAAVFGGGTQLTVL
notes: same VH/VL
With B1 the “% Relative Activity (RA) on Biacore” value (human Gal10-His [1]) was 98%, the “recGal10 crystal dissolution EC50 (T2 h), Assay 1, nebulized” value [2] was 297 µg/mL and the “recGal10 crystal dissolution EC50 (T2 h), Assay 1, stressed (4 W at 37 C)” value [2] was 361 µg/mL. The “recGal10 crystal dissolution EC50 (T2 h), Assay 1, unstressed (T0)” value [2] was 252 µg/mL, the “recGal10 crystal dissolution EC50 (T2 h), Assay 2, nebulized” value [2] was 209 µg/mL and the “recGal10 crystal dissolution EC50 (T2 h), Assay 2, stressed (4 W at 37 C)” value [2] was 191 µg/mL. For the same binder, the “recGal10 crystal dissolution EC50 (T2 h), Assay 2, unstressed (T0)” value [2] was 190 µg/mL, the “% Competition against g7B07-Biot” value (human Gal10-His [3]) was 94.3% and the “Mean OD value” (human Gal10-His [3]) was 0.31 OD. The “fold better affinity than g7B07” value [4] was 7 fold, the “Amplitude R0” value [5] was 589 RU and the koff [5] was 0.0095 s⁻¹. The kon [5] was 950000 M⁻¹ s⁻¹, the “fold better affinity than g7B07” value (human Gal10-His [6]) was 2.8 fold and the Kd (human Gal10-His [7]) was 5.34 nM. For the same binder, the Kd (human Gal10-His [8]) was 5.3 nM, the koff (human Gal10-His [8]) was 0.0031 s⁻¹ and the “Amplitude R0” value (human Gal10-His [9]) was 722 RU. For the same binder, the koff (human Gal10-His [9]) was 0.0031 s⁻¹, the kon (human Gal10-His [9]) was 590000 M⁻¹ s⁻¹ and the “fold better affinity than g7B07” value (human Gal10-His [10]) was 1.7 fold. For the same binder, the “fold better off-rate than g7B07” value (human Gal10-His [10]) was 1.9 fold, the Kd (human Gal10-His [11]) was 5.34 nM and the koff (human Gal10-His [11]) was 0.0031 s⁻¹. For the same binder, the Kd (human Gal10-His [12]) was 3.9 nM, the “kd-fold drop vs g7B07” value (human Gal10-His [12]) was 1.8 fold and the koff (human Gal10-His [12]) was 0.0025 s⁻¹. It also gave a kon (human Gal10-His [12]) of 650000 M⁻¹ s⁻¹.
